Measurements: patent US9243034B2, “Glycogen synthase kinase-3 inhibitors” (Ramot at Tel-Aviv University Ltd., priority 2011, dated 2016)
Where no end group is shown, it is not given here. [ ]: non-standard residue; d: D form. The star is where a group is joined. Myristoyl = CCCCCCCCCCCCCC(=O)*; pS = N[C@@H](COP(=O)(O)O)C(=O)O

Assays:
F93A mutant GSK-3β = molecular target: T1, F93A mutant GSK-3β (Homo sapiens, UniProt P49841, F93A); test: In vitro kinase assay with F93A mutant in presence or absence of inhibitor; format: biochemical; conditions: FIGS. 2B, 2C
T1 construct: made in house; host or cells: HEK-293 (transient transfection, pCMV4 vector; DE-52 partial purification)
Description: (§1) GSK-3β in the pCMV4 vector was used as the template for mutagenesis. Mutations were generated using QuickChange Site Directed Mutagenesis Kit (Stratagene, La Jolla, Calif., USA) according the manufacturer's protocols. Mutations included replacement of D90, K91, R92, F93, K94, V214 to alanine, F93 to tyrosine, and a triple mutation at residues 91-93. All constructs were sequenced to confirm the presence of desired mutations. The sequences of mutagenic oligonucleotides are available from the inventors upon request.
(§2) HEK-293 cells were grown in Dulbecco's Modified Eagle's Medium (DMEM), supplemented with 10% fetal calf serum (FCS), 2 mM glutamine, 100 units/ml penicillin, and 100 μg/ml streptomycin. HEK-293 cells were transiently transfected with indicated constructs, using calcium phosphate method as described [Ilouz et al. (2006) supra]. Cells were lysed in ice-cold buffer G (20 mM Tris-HCl, pH 7.5, 10 mM β-glycerophosphate, 10% glycerol, 1 mM EGTA, 1 mM EDTA, 50 mM NaF, 5 mM sodium pyrophosphate, 0.5 mM orthovanadate, 1 mM benzamidine, 10 μg/ml leupeptin, 5 μg/ml aprotinin, 1 μg/ml pepstatin, and 0.5% Triton X100). Cell extracts were centrifuged for 30 minutes at 15,000×g. […] In all experiments, GSK-3 mutants were expressed at levels at least 5-fold higher than levels of the endogenous GSK-3β as determined by western blot analysis. […]

[1] = system: GSK-3β mutants Q89A, N95A, R92A, K94A and F93Y; test: In vitro kinase assay with other GSK-3β mutants in presence or absence of inhibitor; format: biochemical, human; conditions: data not shown
Description: as §1, §2

GSK-3β = molecular target: T2, GSK-3β (Homo sapiens, UniProt P49841); test: In vitro kinase assay with GSK-3β in the presence of peptide inhibitor; format: biochemical; conditions: for Inhibition of WT-GSK-3β compared with L803: 250 μM each, FIGS. 3B, 3C
T2 construct: made in house; host or cells: HEK-293 (transient transfection, pCMV4 vector; DE-52 partial purification)
Description: (§3) (0.5 μCi/assay) for 15 minutes.
The ability of each peptide to inhibit GSK-3β was then determined by in vitro kinase assays as described hereinabove.

pIRS-1 = test: In vitro kinase assay of GSK-3β mutants, substrate pIRS-1; format: biochemical; conditions: WT set to 100%; mean of 2-3 experiments ± SEM
Description: (§4) HEK-293 cells were grown in Dulbecco's Modified Eagle's Medium (DMEM), supplemented with 10% fetal calf serum (FCS), 2 mM glutamine, 100 units/ml penicillin, and 100 μg/ml streptomycin. HEK-293 cells were transiently transfected with indicated constructs, using calcium phosphate method as described [Ilouz et al. (2006) supra]. Cells were lysed in ice-cold buffer G (20 mM Tris-HCl, pH 7.5, 10 mM β-glycerophosphate, 10% glycerol, 1 mM EGTA, 1 mM EDTA, 50 mM NaF, 5 mM sodium pyrophosphate, 0.5 mM orthovanadate, 1 mM benzamidine, 10 μg/ml leupeptin, 5 μg/ml aprotinin, 1 μg/ml pepstatin, and 0.5% Triton X100). Cell extracts were centrifuged for 30 minutes at 15,000×g. Supernatants were collected, and equal amounts of proteins were boiled with SDS sample buffer and subjected to gel electrophoresis (7.5-12% polyacrylamide gel), transferred to nitrocellulose membranes, and immunoblotted with indicated antibodies. For partial purification, cells were lysed in buffer H (20 mM Tris, pH 7.3, 1 mM EGTA, 1 mM EDTA, 1 mM orthovanadate, 25 μg/ml leupeptin, 25 μg/ml aprotinin, and 25 μg/ml pepstatin A, 500 nM microcystine LR, and 0.25% Triton X100). The lysates were centrifuged at 15,000×g. The resulting supernatants were passed through DE-52 (Whatman, Maidstone, England) mini-columns that were equilibrated with buffer H. GSK-3β proteins were eluted with the same buffer containing 0.02 M NaCl. Equal amounts of proteins were used for in vitro kinase assays. In all experiments, GSK-3 mutants were expressed at levels at least 5-fold higher than levels of the endogenous GSK-3β as determined by western blot analysis.
as §3
(§5) The GSK-3β mutants were partially purified by ion exchange chromatography, and their abilities to phosphorylate peptide substrates were tested in in vitro kinase assays. The substrates were: pIRS-1, p9CREB, and pGS-1, phosphorylated peptides derived from the insulin receptor substrate-1 (IRS-1), cAMP responsive element binding protein (CREB), and glycogen synthase, respectively.
(§6) The results are presented in Table 1, as the percentage of substrate phosphorylation (indicated peptides, pIRS-1, p9CREB and pGS-1) obtained with WTGSK-3β which was set to 100%, and are mean of 2-3 independent experiments each performed in duplicates±SEM.

p9CREB = test: In vitro kinase assay of GSK-3β mutants, substrate p9CREB; format: biochemical; conditions: WT set to 100%; mean of 2-3 experiments ± SEM
Description: as §4, §3, §5, §6

pGS-1 = test: In vitro kinase assay of GSK-3β mutants, substrate pGS-1; format: biochemical; conditions: WT set to 100%; mean of 2-3 experiments ± SEM
Description: as §4, §3, §5, §6

T2 sequence (P49841 1-433 isoform P49841-2): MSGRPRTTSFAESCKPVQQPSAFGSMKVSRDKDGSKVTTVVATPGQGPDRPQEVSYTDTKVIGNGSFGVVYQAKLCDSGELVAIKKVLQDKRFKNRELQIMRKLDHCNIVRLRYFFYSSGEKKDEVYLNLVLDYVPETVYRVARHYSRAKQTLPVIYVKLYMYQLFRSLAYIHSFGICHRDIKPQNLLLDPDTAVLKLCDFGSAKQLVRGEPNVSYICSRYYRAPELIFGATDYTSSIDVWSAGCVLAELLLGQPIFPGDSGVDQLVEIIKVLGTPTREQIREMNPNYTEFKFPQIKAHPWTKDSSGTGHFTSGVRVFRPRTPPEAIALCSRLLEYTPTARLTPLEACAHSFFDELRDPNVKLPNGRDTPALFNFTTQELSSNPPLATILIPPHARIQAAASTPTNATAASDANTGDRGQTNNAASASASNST
T1 sequence (P49841 1-433 isoform P49841-2 F93A): as the sequence (P49841 1-433 isoform P49841-2) above, with F93A counted along it

Molecule | Substrate phosphorylation (% of WTGSK-3β), pIRS-1 (pIRS-1) | Substrate phosphorylation (% of WTGSK-3β), p9CREB (p9CREB) | Substrate phosphorylation (% of WTGSK-3β), pGS-1 (pGS-1) | also measured
KEAPPAPPQS(p)P (KEAPPAPPQ[pS]P) [L803] |  |  |  | Inhibition of F93A mutated enzyme (F93A mutant GSK-3β): did not inhibit; Inhibition of other GSK-3β mutants [1]: inhibited all other mutants
L803-mts: L803 in which myristic acid was attached to its N-terminal, cell permeable, SEQ ID NO:5 (Myristoyl-GKEAPPAPPQSP; not fully specified (residue 11)) |  |  |  | Competition with substrates pIRS-1, p9CREB, pGS-1 (GSK-3β; purified GSK-3β, 100 μM, FIG. 2A): competes with various substrates; Inhibition of F93A mutated enzyme (F93A mutant GSK-3β): did not inhibit; Inhibition of other GSK-3β mutants [1]: able to inhibit all other mutants
Lys-Ala-Ala-Pro-Pro-Ala-Pro-Pro-Gln-phosphorylated Ser-Pro [PE2A] |  |  |  | Inhibition of WT-GSK-3β compared with L803 (GSK-3β): slightly impaired
Lys-Glu-Ala-Pro-Pro-Ala-Pro-Pro-Ala-phosphorylated Ser-Pro [PQ9A] |  |  |  | Increase of inhibition relative to L803 (GSK-3β; 250 μM, FIG. 3B): about two-fold
Lys-Glu-Ala-Pro-Pro-Ala-Pro-Pro-Pro-phosphorylated Ser-Pro [PQ9P] |  |  |  | Inhibition activity, dose-response comparative plots (GSK-3β; L803, PQ9A and PQ9P compared, FIG. 5): enhanced inhibition activity
PQ9R: L803 variant, Gln 9 replaced with arginine, SEQ ID NO:14 (KEAPPAPPRSP; PQ9R synthetic peptide) |  |  |  | Inhibition of WT-GSK-3β compared with L803 (GSK-3β): non-inhibitory
PQ9Y: L803 variant, Gln 9 replaced with tyrosine, SEQ ID NO:15 (KEAPPAPPYSP; PQ9Y synthetic peptide) |  |  |  | Inhibition of WT-GSK-3β compared with L803 (GSK-3β): non-inhibitory

Further lines, with some results ahead:

Substrate phosphorylation (% of WTGSK-3β), pIRS-1 (pIRS-1) | Substrate phosphorylation (% of WTGSK-3β), p9CREB (p9CREB) | Substrate phosphorylation (% of WTGSK-3β), pGS-1 (pGS-1) | Molecule | also measured
60 ± 3 % of WTGSK-3β | 49 ± 19 % of WTGSK-3β | 41 ± 14 % of WTGSK-3β | R92A: GSK-3β mutant, R92 replaced by alanine, SEQ ID NO:8 (protein, GSK-3 beta, R92A mutant) MSGRPRTTSFAESCKPVQQPSAFGSMKVSRDKDGSKVTTVVATPGQGPDRPQEVSYTDTKVIGNGSFGVVYQAKLCDSGELVAIKKVLQDKAFKNRELQIMRKLDHCNIVRLRYFFYSSGEKKDEVYLNLVLDYVPETVYRVARHYSRAKQTLPVIYVKLYMYQLFRSLAYIHSFGICHRDIKPQNLLLDPDTAVLKLCDFGSAKQLVRGEPNVSYICSRYYRAPELIFGATDYTSSIDVWSAGCVLAELLLGQPIFPGDSGVDQLVEIIKVLGTPTREQIREMNPNYTEFKFPQIKAHPWTKDSSGTGHFTSGVRVFRPRTPPEAIALCSRLLEYTPTARLTPLEACAHSFFDELRDPNVKLPNGRDTPALFNFTTQELSSNPPLATILIPPHARIQAAASTPTNATAASDANTGDRGQTNNAASASASNST | 
88 ± 15 % of WTGSK-3β | 92 ± 21 % of WTGSK-3β | 83 ± 2 % of WTGSK-3β | D90A: GSK-3β mutant, D90 replaced by alanine, SEQ ID NO:6 (protein, GSK-3 beta, D90A mutant) MSGRPRTTSFAESCKPVQQPSAFGSMKVSRDKDGSKVTTVVATPGQGPDRPQEVSYTDTKVIGNGSFGVVYQAKLCDSGELVAIKKVLQAKRFKNRELQIMRKLDHCNIVRLRYFFYSSGEKKDEVYLNLVLDYVPETVYRVARHYSRAKQTLPVIYVKLYMYQLFRSLAYIHSFGICHRDIKPQNLLLDPDTAVLKLCDFGSAKQLVRGEPNVSYICSRYYRAPELIFGATDYTSSIDVWSAGCVLAELLLGQPIFPGDSGVDQLVEIIKVLGTPTREQIREMNPNYTEFKFPQIKAHPWTKDSSGTGHFTSGVRVFRPRTPPEAIALCSRLLEYTPTARLTPLEACAHSFFDELRDPNVKLPNGRDTPALFNFTTQELSSNPPLATILIPPHARIQAAASTPTNATAASDANTGDRGQTNNAASASASNST | 
52 ± 19 % of WTGSK-3β | 71 ± 4 % of WTGSK-3β | 19 ± 14 % of WTGSK-3β | K94A: GSK-3β mutant, K94 replaced by alanine, SEQ ID NO:10 (protein, GSK-3 beta, K94A mutant) MSGRPRTTSFAESCKPVQQPSAFGSMKVSRDKDGSKVTTVVATPGQGPDRPQEVSYTDTKVIGNGSFGVVYQAKLCDSGELVAIKKVLQDKRFANRELQIMRKLDHCNIVRLRYFFYSSGEKKDEVYLNLVLDYVPETVYRVARHYSRAKQTLPVIYVKLYMYQLFRSLAYIHSFGICHRDIKPQNLLLDPDTAVLKLCDFGSAKQLVRGEPNVSYICSRYYRAPELIFGATDYTSSIDVWSAGCVLAELLLGQPIFPGDSGVDQLVEIIKVLGTPTREQIREMNPNYTEFKFPQIKAHPWTKDSSGTGHFTSGVRVFRPRTPPEAIALCSRLLEYTPTARLTPLEACAHSFFDELRDPNVKLPNGRDTPALFNFTTQELSSNPPLATILIPPHARIQAAASTPTNATAASDANTGDRGQTNNAASASASNST | 
140 ± 18 % of WTGSK-3β | 161 ± 5 % of WTGSK-3β | 119 ± 5 % of WTGSK-3β | K91A: GSK-3β mutant, K91 replaced by alanine, SEQ ID NO:7 (protein, GSK-3 beta, K91A mutant) MSGRPRTTSFAESCKPVQQPSAFGSMKVSRDKDGSKVTTVVATPGQGPDRPQEVSYTDTKVIGNGSFGVVYQAKLCDSGELVAIKKVLQDARFKNRELQIMRKLDHCNIVRLRYFFYSSGEKKDEVYLNLVLDYVPETVYRVARHYSRAKQTLPVIYVKLYMYQLFRSLAYIHSFGICHRDIKPQNLLLDPDTAVLKLCDFGSAKQLVRGEPNVSYICSRYYRAPELIFGATDYTSSIDVWSAGCVLAELLLGQPIFPGDSGVDQLVEIIKVLGTPTREQIREMNPNYTEFKFPQIKAHPWTKDSSGTGHFTSGVRVFRPRTPPEAIALCSRLLEYTPTARLTPLEACAHSFFDELRDPNVKLPNGRDTPALFNFTTQELSSNPPLATILIPPHARIQAAASTPTNATAASDANTGDRGQTNNAASASASNST | 
